Experimental data from patent publication US20250223583A1 (BROAD INSTITUTE, published 2025).

Molecular target: T1, murine CD47 (murine, UniProt Q61735 19-303)
T1 sequence (looked up): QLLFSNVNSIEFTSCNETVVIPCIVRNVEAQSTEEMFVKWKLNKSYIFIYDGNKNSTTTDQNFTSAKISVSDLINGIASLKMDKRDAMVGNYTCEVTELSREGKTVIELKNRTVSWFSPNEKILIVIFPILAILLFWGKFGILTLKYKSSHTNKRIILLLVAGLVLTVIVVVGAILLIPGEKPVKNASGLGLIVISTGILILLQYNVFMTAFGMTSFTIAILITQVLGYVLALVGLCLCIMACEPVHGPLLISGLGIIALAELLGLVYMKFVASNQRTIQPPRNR
Experiment: cell-based or functional assay

- biotin labeling of B16 cells, fold over non-targeted ultraID at 1 nM: 10 fold
- streptavidin-PE signal on B16 cells, enzyme-based labeling relative to binding by the biotinylated nanobody construct alone: ≥ 20 fold
B1: anti-mCD47 nanobody-ultraID (murine CD47) (other)
chain: QVQLVESGGGLVEPGGSLRLSCAASGIIFKINDMGWYRQAPGKRREWVAASTGGDEAIYRDSVKDRFTISRDAKNSVFLQMNSLKPEDTAVYYCTAVISTDRDGTEWRRYWGQGTQVTVSSGGLPETGGGGGSGGGSGGGSMFKNLIWLKEVDSTQERLKEWNVSYGTALVADRQTKGRGGPGRKWLSQEGGLYFSFLLNPKEFENLLQLPLVLGLSVSEALEEITEIPFSLKWPNDVYFQEKKVSGVLCELSKDKLIVGIGINVNQREIPEEIKDRATTLYEITGKDWDRKEVLLKVLKRISENLKKFKEK
